Measured values reported in US20140271653A1 (Regeneron, published 2014).
Where two headings read alike, the source gives them in different places.

B1: H1M3624N (antibody, V domains shown)
VH: QVQLEQSGAEVKKPGTSVRISCKASGDIFTGYYMNWVRQAPGQGLEWMGWINTNSGGTYFSQRFQGRVTLTRDTSIRTAYMELSRLRSDDTAVYYCARMFYDILTGSDVFDIWGQGTMVTVSS
VL: DIQMTQSPSSLSASVGDRVTITCRASQDIRNDLGWYHQKPGKAPKCLIYGASSLQSGVPSRFSGSGSGTEFTLTISSLQPEDFATYYCLQHKNYMYTFGQGTKLEIK
notes: also called H1M2634N
B2: H1M3627N (antibody, V domains shown)
VH: EVQLVESGGGLVQPGGSLRLSCAASGFTISNYEMNWVRQAPGKGLEWVSYISTSGITIYYADSVQGRFTISRDNAKNSLYLQLNSLRAEDTAVYYCARGYCTNGVCYPHYYYSDMDVWGQGTTVTVSS
VL: DIQMTQSPSSLSASVGDRLTITCRASQTISTYLNWFQQKVGNAPKLLIYSTSSLQSGVPARFSGSGSGTDFTLTISSLQPEDFATYYCQQSYSSPPTFGQGTKVEIK
B3: H1H3592P3 (antibody, V domains shown)
VH: EVQLVESGGDLVQPGRSLRLSCVASGFTFDDYAMHWVRQAPGKGLEWVSGVSWSGSTVGYADSVKGRFTVSRDNAQKSLYLQMNSLRAEDTALYYCVKDAYKFNYYYYGLDVWGQGTTVTVSS
VL: EIVMTQSPATLSVSPGERATLSCRASQTILSNLAWYLQKPGQAPRLLIYGASTRATGLPARFSGSGSGTEFTLTISSLQSEDFAVYYCQQYNNWPLTFGGGTKVEIK
B4: Control II (motavizumab sequence) (antibody, V domains shown)
VH: QVTLRESGPALVKPTQTLTLTCTFSGFSLSTAGMSVGWIRQPPGKALEWLADIWWDDKKHYNPSLKDRLTISKDTSKNQVVLKVTNMDPADTATYYCARDMIFNFYFDVWGQGTTVTVSS
VL: DIQMTQSPSTLSASVGDRVTITCSASSRVGYMHWYQQKPGKAPKLLIYDTSKLASGVPSRFSGSGSGTEFTLTISSLQPDDFATYYCFQGSGYPFTFGGGTKVEIKR
B5: H1M3622N (antibody, V domains shown)
VH: QVQLQQWGAGLLKPSETLSLTCAVYGGSLSDYYWSWIRQPPGKGLEWIGEINHSGDTNYDPSLKSRLTISVDTSKNQFSLKLNSVTAADTAVYYCASLYFNFWMWGRGALVTVSS
VL: DIVMTQTPLSSPVILGQPASISCRSSQSLVYSDGNTYLSWLQQRPGQPPRLLIYKISNRFSGVPDRFSGSGTGTDFTLKISRVEAEDVGIYYCMQTTQFPLTFGGGTKVEIK
B6: H1H3627N (antibody, V domains shown)
VH: B2 VH
VL: B2 VL

Legend:
[1] = target: T1, RSV-F of RSV subtype A strain A2 (1540) (respiratory syncytial virus subtype A, …, UniProt P03420 26-574); experiment: cell-based or functional assay
[2] = target: T2, RSV-F.mmh (Respiratory Syncytial Virus); experiment: SPR (Biacore), mAb captured via Fc, soluble RSV-F.mmh injected, 25 C
T2 construct: also called recombinant RSV-F; soluble monomeric RSV-F
Method: Measurements were conducted on a Biacore 4000 or T-200 instrument. […] All Biacore binding studies were performed in HBST running buffer (0.01 M HEPES pH 7.4, 0.15 M NaCl, 3 mM EDTA, 0.005% v/v surfactant P20). Different concentrations of RSV-F.mmh prepared in HBST running buffer were injected over the anti-RSV-F monoclonal antibody captured surface at a flow rate of 30 μl/min (Biacore 4000) or at a flow rate of 50 μl/min (Biacore T-200) and the association of RSV-F.mmh to captured monoclonal antibody was monitored for 6 min or 3 min respectively. The dissociation of RSV-F.mmh from the monoclonal antibody in HBST running buffer was monitored for 8-10 min at 25° C. Kinetic association (kₐ) and dissociation (kd) rate constants were determined by processing and fitting the data to a 1:1 binding model using Scrubber 2.0 curve fitting software. Binding dissociation equilibrium constants (KD) and dissociative half-lives (t½) were calculated from the kinetic rate constants as: KD (M)=kd/kₐ; and t_{1/2} (min)=(ln 2/(60*kd).

[3] = target: T1, RSV-F of RSV subtype A strain A2 (1540); experiment: cell-based or functional assay; remark: listed apart in the source
[4] = target: T1, RSV-F of RSV subtype A strain A2 (1540); experiment: cell-based or functional assay; remark: listed apart in the source
[5] = target: T3, RSV-F of RSV subtype A strain Long (respiratory syncytial virus subtype A, …, UniProt P12568 26-574); experiment: cell-based or functional assay
[6] = target: T4, RSV-F of RSV subtype B strain 1580 (respiratory syncytial virus subtype B, …); experiment: cell-based or functional assay
[7] = target: T5, RSV-F of RSV subtype B strain 9320 (respiratory syncytial virus subtype B, …); experiment: cell-based or functional assay
[8] = target: T1, RSV-F of RSV subtype A strain A2 (1540); experiment: cell-based or functional assay; remark: listed apart in the source
[9] = target: T4, RSV-F of RSV subtype B strain 1580; experiment: cell-based or functional assay; remark: listed apart in the source
[10] = target: T1, RSV-F of RSV subtype A strain A2 (1540); experiment: cell-based or functional assay; remark: listed apart in the source
[11] = target: T3, RSV-F of RSV subtype A strain Long; experiment: cell-based or functional assay; remark: listed apart in the source
[12] = target: T5, RSV-F of RSV subtype B strain 9320; experiment: cell-based or functional assay; remark: listed apart in the source
[13] = target: RSV-F of RSV subtype B strain 18537 (respiratory syncytial virus subtype B, …, UniProt P13843 26-574); experiment: cell-based or functional assay
[14] = target: RSV-F of RSV subtype B strain 1400 (respiratory syncytial virus subtype B, …); experiment: cell-based or functional assay
[15] = target: RSV-F of RSV subtype B strain 1A2 (respiratory syncytial virus subtype B, …); experiment: cell-based or functional assay
[16] = target: RSV-F of RSV subtype A clinical isolate A2001/2-20 (respiratory syncytial virus subtype A, …); experiment: cell-based or functional assay
[17] = target: RSV-F of RSV subtype A clinical isolate A2001/3-12 (respiratory syncytial virus subtype A, …); experiment: cell-based or functional assay
[18] = target: RSV-F of RSV subtype A clinical isolate A1997/12-35 (respiratory syncytial virus subtype A, …); experiment: cell-based or functional assay
[19] = target: RSV-F of RSV subtype A clinical isolate A1998/3-2 (respiratory syncytial virus subtype A, …); experiment: cell-based or functional assay
[20] = target: RSV-F of RSV subtype A clinical isolate A1998/12-21 (respiratory syncytial virus subtype A, …); experiment: cell-based or functional assay
[21] = target: RSV-F of RSV subtype A clinical isolate A2000/3-4 (respiratory syncytial virus subtype A, …); experiment: cell-based or functional assay
[22] = target: T2, RSV-F.mmh; experiment: SPR (Biacore), mAb captured via Fc, soluble RSV-F.mmh injected, 25 C; remark: listed apart in the source
[23] = target: RSV-F S173Y of escape mutant RSV/A S173Y (respiratory syncytial virus subtype A, …, UniProt P03420 26-574); experiment: cell-based or functional assay
[24] = target: RSV-F S173T of escape mutant RSV/B S173T (respiratory syncytial virus subtype B, …); experiment: cell-based or functional assay
[25] = target: RSV-F T174K of escape mutant RSV/B T174K (respiratory syncytial virus subtype B, …); experiment: cell-based or functional assay
[26] = target: RSV-F S173T/T174K of escape mutant RSV/B S173T/T174K (respiratory syncytial virus subtype B, …); experiment: cell-based or functional assay

Row | Binder | IC50 [pM] for RSV A2 Neutralization, Trial 1 [1] | IC50 [pM] for RSV A2 Neutralization, Trial 2 [1] | IC50 [pM] for RSV A2 Neutralization, Trial 3 [1] | Kd [2] | koff [2] | kon [2] | t½ [2] | IC50 [pM] for RSV A2 Neutralization, Trial 6 [1] | IC50 [pM] for RSV A2 Neutralization, Trial 7 [1] | RSV-A2 (1540) Neutral. IC50 [pM] [4] | RSV-A2 (1540) neutralization, Fold Improvement Relative to Control 1 [4] | RSV-Long Neutral. IC50 [pM] [5] | RSV-Long neutralization, Fold Improvement Relative to Control 1 [5] | RSV - 1580 Neutral. IC50 [pM] [6] | RSV - 1580 neutralization, Fold Improvement Relative to Control 1 [6] | RSV-9320 Neutral. IC50 [pM] [7] | RSV-9320 neutralization, Fold Improvement Relative to Control 1 [7] | Neutralization IC50, pM (microneutralization, wt subtype A) [8] | Neutralization IC50, pM (microneutralization, wt subtype B) [9] | IC50 (pM), RSV micro-neutralization, A/A2 [10] | also measured
1 | B1 | 540 pM | 270 pM | 92 pM | 1.02 nM | 0.000183 s⁻¹ | 179000 M⁻¹ s⁻¹ | 1.05 h | – | – | – | – | – | – | – | – | – | – | – | – | – | –
2 | B2 | 4 pM | 4 pM | 5 pM | 2.02 nM | 0.000523 s⁻¹ | 259000 M⁻¹ s⁻¹ | 0.367 h | 10 pM | – | – | – | – | – | – | – | – | – | – | – | – | –
3 | B3 | – | – | – | – | – | – | – | – | 10 pM | 10 pM | 36 fold | 15 pM | 35 fold | 31 pM | 12 fold | 100 pM | 4.6 fold | 177 pM | 290 pM | 140 pM | IC50 of blocking viral fusion (antibody added after viral attachment at 4 C, infection read by ELISA) [3]: 0.23 nM; IC50 (pM), RSV micro-neutralization, A/Long [11]: 44 pM; IC50 (pM), RSV micro-neutralization, B/9320 [12]: 151 pM; IC50 (pM), RSV micro-neutralization, B/18537 [13]: 230 pM; IC50 (pM), RSV micro-neutralization, B/1400 [14]: 33 pM; IC50 (pM), RSV micro-neutralization, B/1A2 [15]: 48 pM; IC50 (pM), RSV micro-neutralization, clinical isolate [16]: 43 pM; IC50 (pM), RSV micro-neutralization, clinical isolate [17]: 66 pM; IC50 (pM), RSV micro-neutralization, clinical isolate [18]: 40 pM; IC50 (pM), RSV micro-neutralization, clinical isolate [19]: 35 pM; IC50 (pM), RSV micro-neutralization, clinical isolate [20]: 34 pM; IC50 (pM), RSV micro-neutralization, clinical isolate [21]: 50 pM; Kd [22]: 8.43 nM; koff [22]: 0.000747 s⁻¹; kon [22]: 88600 M⁻¹ s⁻¹; t½ [22]: 0.25 h
4 | B4 | 50 pM | 30 pM | 23 pM | – | – | – | – | 12 pM | 12 pM | 14 pM | 25 fold | 65 pM | 8.2 fold | 43 pM | 8.7 fold | 56 pM | 8.2 fold | 108 pM | 260 pM | 202 pM | IC50 [pM] for RSV A2 Neutralization, Trial 4 [1]: 20 pM; IC50 [pM] for RSV A2 Neutralization, Trial 5 [1]: 12 pM; Neutralization IC50, pM (microneutralization, escape mutant) [23]: 170 pM; Neutralization IC50, pM (microneutralization, escape mutant) [24]: 177 pM; Neutralization IC50, pM (microneutralization, escape mutant) [25]: 108 pM; Neutralization IC50, pM (microneutralization, escape mutant) [26]: 218 pM; IC50 (pM), RSV micro-neutralization, A/Long [11]: 83 pM; IC50 (pM), RSV micro-neutralization, B/9320 [12]: 76 pM; IC50 (pM), RSV micro-neutralization, B/18537 [13]: 187 pM; IC50 (pM), RSV micro-neutralization, B/1400 [14]: 38 pM; IC50 (pM), RSV micro-neutralization, B/1A2 [15]: 40 pM; IC50 (pM), RSV micro-neutralization, clinical isolate [16]: 74 pM; IC50 (pM), RSV micro-neutralization, clinical isolate [17]: 129 pM; IC50 (pM), RSV micro-neutralization, clinical isolate [18]: 41 pM; IC50 (pM), RSV micro-neutralization, clinical isolate [19]: 36 pM; IC50 (pM), RSV micro-neutralization, clinical isolate [20]: 68 pM; IC50 (pM), RSV micro-neutralization, clinical isolate [21]: 88 pM
5 | B5 | 320 pM | 82 pM | – | 2.38 nM | 9.13e-05 s⁻¹ | 38400 M⁻¹ s⁻¹ | 2.12 h | – | – | – | – | – | – | – | – | – | – | – | – | – | –
6 | B6 | – | – | – | – | – | – | – | – | 3 pM | 2.6 pM | 138 fold | 7.3 pM | 73 fold | 6.7 pM | 55 fold | 11 pM | 42 fold | – | – | – | Kd [22]: 0.581 nM; koff [22]: 0.000149 s⁻¹; kon [22]: 256000 M⁻¹ s⁻¹; t½ [22]: 1.3 h
